Assay results published in US20220364094, “CD44 APTAMER” (The Chiness University Of Hong Kong, published 2022).

Target: CD44 hyaluronic acid binding domain (HABD) (UniProt P16070 P16070:21-178)
Assay: ELONA; hardly associated with HABD; epitope expected in region encoded by exons 15-16
Settings: tags: His-tag, commercial; captured via His-tag antibody; label: biotin (loop of second hairpin, 44G-48A region); two hairpins and one stem (predicted)
Protocol: His-tag recombinant CD44 HABD protein was immobilized on ELISA plate using His-tag antibody. The captured CD44 proteins were incubated with various concentrations of biotin-labeled CD44-Apt1 (5 nM-10 μM). Bound Apt1 then were detected by peroxidase-conjugated streptavidin and TMB substrate. […] constant, KD was calculated based on the absorbance values using the one-site binding model for non-linear regression in GraphPad.
The major epitope in CD44 protein that is recognized by the CD44-Apt1 was next determined. CD44 protein consists of an extracellular domain, a transmembrane helical domain, and an intracellular signaling transmission domain (FIG. 1H). The extracellular domain contains a hyaluronic acid binding domain (HABD) at its distal N-terminus and a glycosylation-site enriched variable region, the length of which are vary in different splice variants. Titration sandwich enzyme-linked immunosorbent assay (ELISA) was employed to map the epitope for CD44-Apt1. Antibody targeting the C-terminus of CD44 proteins that is the intracellular signaling domain was immobilized on a polystyrene support. Sites without antibody were blocked using bovine serum albumin. […] The amount of biotin-CD44-Apt1 bound to the captured proteins were evaluated using streptavidin conjugated horseradish peroxidase (HRP) and TMB substrate.

Chain of CD44 hyaluronic acid binding domain (HABD) (P16070 21-178, one chain of several): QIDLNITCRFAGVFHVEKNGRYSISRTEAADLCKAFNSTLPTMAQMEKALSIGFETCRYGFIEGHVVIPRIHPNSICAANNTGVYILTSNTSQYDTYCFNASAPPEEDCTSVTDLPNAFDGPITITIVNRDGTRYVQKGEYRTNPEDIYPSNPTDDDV

B1: CD44-Apt1 (biotin) (ssDNA)
DNA: ATCCAGAGTGACGCAGCATCGCAACGATTAGTATGCACCCACCGTATAGGTTGGTCTCTGGACACGGTGGCTTAGT
For B1, which Kd is on record?
Its Kd is 2360 nM.
